These results are taken from publication PMC5267525, “Sec3 promotes the initial binary t-SNARE complex assembly and membrane fusion” (Nature Communications, 2017).

First the molecules themselves.
B1: His6-Sso2 (cytosolic domain, a.a. 1–270) [yeast] / GST-tagged Sec9 C-terminal SNARE domain (a.a. 414–651) [yeast] (parent)
chain 1: MSNANPYENNNPYAENYEMQEDLNNAPTGHSDGSDDFVAFMNKINSINANLSRYENIINQIDAQHKDLLTQVSEEQEMELRRSLDDYISQATDLQYQLKADIKDAQRDGLHDSNKQAQAENCRQKFLKLIQDYRIIDSNYKEESKEQAKRQYTIIQPEATDEEVEAAINDVNGQQIFSQALLNANRRGEAKTALAEVQARHQELLKLEKTMAELTQLFNDMEELVIEQQENVDVIDKNVEDAQQDVEQGVGHTNKAVKSARKARKNKIRC
chain 2: EEARQQQEEDEAVDEIKQEIKFTKQSSVASTRNTLKMAQDAERAGMNTLGMLGHQSEQLNNVEGNLDLMKVQNKVADEKVAELKKLNRSILAVHVSNPFNSKRRRREREEQLKNRKIEEKLMREQTSQQLSQSTQRIEGAMNANNNISEVRERYQRKNVLEKAKRYQFENDEEDDEMELEIDRNLDQIQQVSNRLKKMALTTGKELDSQQKRLNNIEESTDDLDINLHMNTNRLAGIR

The first test covers variants of B1. Put plainly: GST pull-down time course (SDS-PAGE, Coomassie blue staining, band quantification). The note with it: with GST-tagged Sec9 C-terminal SNARE domain (a.a. 414–651) [yeast]; time point 5 min; parent: 0; read off a plot.
In the case of chain 1 D170G V171S N172S Q174G, the response was found to be 34%.

Staying with this test, now noted: with GST-tagged Sec9 C-terminal SNARE domain (a.a. 414–651) [yeast]; time point 10 min; parent: 9; read off a plot.
In the case of chain 1 D170G V171S N172S Q174G, the response came out at 67%.

The test is the same for the next values; noted with them: with GST-tagged Sec9 C-terminal SNARE domain (a.a. 414–651) [yeast]; time point 20 min; parent: 32; read off a plot.
Regarding chain 1 D170G V171S N172S Q174G, the response amounted to 79%.

The test is the same for the next values; noted with them: with GST-tagged Sec9 C-terminal SNARE domain (a.a. 414–651) [yeast]; time point 40 min; parent: 29; read off a plot.
With chain 1 D170G V171S N172S Q174G, the response is 100%.

Staying with this test, now noted: with GST-tagged Sec9 C-terminal SNARE domain (a.a. 414–651) [yeast]; time point 70 min; parent: 48; read off a plot.
chain 1 D170G V171S N172S Q174G: the response was found to be 92%.

Still in this test, the particulars now being: with GST-tagged Sec9 C-terminal SNARE domain (a.a. 414–651) [yeast]; time point 110 min; parent: 72; read off a plot.
With chain 1 D170G V171S N172S Q174G, the response worked out at 96%.

The same test, now with this note: with GST-tagged Sec9 C-terminal SNARE domain (a.a. 414–651) [yeast]; time point 170 min; read off a plot.
Turning to chain 1 D170G V171S N172S Q174G, the response stood at 96%.

Staying with this test, now noted: with GST-tagged Sec9 C-terminal SNARE domain (a.a. 414–651) [yeast]; time point 240 min; parent: 100; read off a plot.
On to chain 1 D170G V171S N172S Q174G, for which the response is 100%.
